From patent US20220259318A1 (Hoffmann-La Roche, published 2022)
Numbering of substitutions follows the chain as printed.

B1: 5E11-TCB (bispecific antibody, human IgG1, kappa, L234A L235A)
light 1: DIVLTQSPALAVSPGQRATISCRASQSVSISGINLMNWYQQKPGQQPKLLIYHASILASGIPTRFSGSGSGTDFTLTIDPVQADDIATYYCQQTRESPLTFGSGTNLEIKRTVAAPSVFIFPPSDRKLKSGTASVVCLLNNFYPREAKVQWKVDNALQSGNSQESVTEQDSKDSTYSLSSTLTLSKADYEKHKVYACEVTHQGLSSPVTKSFNRGEC
light 2: EVQLLESGGGLVQPGGSLRLSCAASGFTFSTYAMNWVRQAPGKGLEWVSRIRSKYNNYATYYADSVKGRFTISRDDSKNTLYLQMNSLRAEDTAVYYCVRHGNFGNSYVSWFAYWGQGTLVTVSSASVAAPSVFIFPPSDEQLKSGTASVVCLLNNFYPREAKVQWKVDNALQSGNSQESVTEQDSKDSTYSLSSTLTLSKADYEKHKVYACEVTHQGLSSPVTKSFNRGEC
heavy 1: ELQLEQSGGGLVQPGGSLTLSCAASGFTFSKYAMAWVRQAPTKGLEWVASISTGGVNTYYRDSVKARFTISRDNAKNTQYLQMDSLRSEDTATYYCATHTGDYFDYWGQGVMVTVSSASTKGPSVFPLAPSSKSTSGGTAALGCLVEDYFPEPVTVSWNSGALTSGVHTFPAVLQSSGLYSLSSVVTVPSSSLGTQTYICNVNHKPSNTKVDEKVEPKSCDKTHTCPPCPAPEAAGGPSVFLFPPKPKDTLMISRTPEVTCVVVDVSHEDPEVKFNWYVDGVEVHNAKTKPREEQYNSTYRVVSVLTVLHQDWLNGKEYKCKVSNKALGAPIEKTISKAKGQPREPQVCTLPPSRDELTKNQVSLSCAVKGFYPSDIAVEWESNGQPENNYKTTPPVLDSDGSFFLVSKLTVDKSRWQQGNVFSCSVMHEALHNHYTQKSLSLSPGK
heavy 2: not shown
notes: 2+1 anti-GPRC5D/anti-CD3 T cell bispecific: LC1 (GPRC5D), LC2 (CD3 crossed VH-CL), HC hole, HC knob; also called 5E11p-CH2527
B2: 5F11(VH1b + VL2a)-C122-TCB (P1AE6623) (bispecific antibody, human IgG1, kappa, L234A L235A)
light 1: DIVMTQSPLSLPVTPGEPASISCRSSKSLLHSNGITYVYWYLQKPGQSPQLLIYRMSNRASGVPDRFSGSGSGTDFTLKISRVEAEDVGVYHCGQLLENPYTFGQGTKLEIKRTVAAPSVFIFPPSDRKLKSGTASVVCLLNNFYPREAKVQWKVDNALQSGNSQESVTEQDSKDSTYSLSSTLTLSKADYEKHKVYACEVTHQGLSSPVTKSFNRGEC
light 2: B1 light 2 with T28Q, T31S, G102T, N103T, G105P, N106S, W111Y, F112Y, A113G
heavy 1: EVQLVESGGGVVQPGRSLRLSCAASGFSFSNYGMAWVRQAPGKGLEWVASISTGGGNTYYRDSVKGRFTISRDNAKNTLYLQMNSLRAEDTAVYYCTRHDRGGLYWGQGTMVTVSSASTKGPSVFPLAPSSKSTSGGTAALGCLVEDYFPEPVTVSWNSGALTSGVHTFPAVLQSSGLYSLSSVVTVPSSSLGTQTYICNVNHKPSNTKVDEKVEPKSCDKTHTCPPCPAPEAAGGPSVFLFPPKPKDTLMISRTPEVTCVVVDVSHEDPEVKFNWYVDGVEVHNAKTKPREEQYNSTYRVVSVLTVLHQDWLNGKEYKCKVSNKALGAPIEKTISKAKGQPREPQVCTLPPSRDELTKNQVSLSCAVKGFYPSDIAVEWESNGQPENNYKTTPPVLDSDGSFFLVSKLTVDKSRWQQGNVFSCSVMHEALHNHYTQKSLSLSPGK
heavy 2: not shown
notes: 2+1 TCB: LC1 (anti-GPRC5D), LC2 (anti-CD3 crossed), HC1 Fc hole, HC2 Fc knob
B3: B72-TCB (bispecific antibody, human IgG1, kappa, L234A L235A)
heavy 1: not shown
light 1: B1 light 2 with L5V, S30N, S49A, D64A, T80S, R89K, A90T, V99A
heavy 2: QVQLVQSGAEVKKPGASVKVSCKASGYSFTGYTMNWVRQAPGQGLEWMGLINPYNSDTNYAQKLQGRVTMTTDTSTSTAYMELRSLRSDDTAVYYCARVALRVALDYWGQGTLVTVSSASTKGPSVFPLAPSSKSTSGGTAALGCLVEDYFPEPVTVSWNSGALTSGVHTFPAVLQSSGLYSLSSVVTVPSSSLGTQTYICNVNHKPSNTKVDEKVEPKSCDKTHTCPPCPAPEAAGGPSVFLFPPKPKDTLMISRTPEVTCVVVDVSHEDPEVKFNWYVDGVEVHNAKTKPREEQYNSTYRVVSVLTVLHQDWLNGKEYKCKVSNKALGAPIEKTISKAKGQPREPQVCTLPPSRDELTKNQVSLSCAVKGFYPSDIAVEWESNGQPENNYKTTPPVLDSDGSFFLVSKLTVDKSRWQQGNVFSCSVMHEALHNHYTQKSLSLSPGK
light 2: DIQMTQSPSSLSASVGDRVTITCKASQNVATHVGWYQQKPGKAPKRLIYSASYRYSGVPSRFSGSGSGTEFTLTISNLQPEDFATYYCQQYNRYPYTFGQGTKLEIKRTVAAPSVFIFPPSDRKLKSGTASVVCLLNNFYPREAKVQWKVDNALQSGNSQESVTEQDSKDSTYSLSSTLTLSKADYEKHKVYACEVTHQGLSSPVTKSFNRGEC
B4: 5E11(VH1d + VL2a)-C122-TCB (P1AE6626) (bispecific antibody, human IgG1, kappa, L234A L235A)
light 1: EIVLTQSPGTLSLSPGERATLSCRASQSVSISGINLMNWYQQKPGQQPRLLIYHASILASGIPDRFSGSGSGTDFTLTISRLEPEDFAVYYCQQTRESPLTFGQGTRLEIKRTVAAPSVFIFPPSDRKLKSGTASVVCLLNNFYPREAKVQWKVDNALQSGNSQESVTEQDSKDSTYSLSSTLTLSKADYEKHKVYACEVTHQGLSSPVTKSFNRGEC
light 2: B1 light 2 with T28Q, T31S, G102T, N103T, G105P, N106S, W111Y, F112Y, A113G
heavy 1: ELQLLESGGGLVQPGGSLRLSCAASGFTFSKYAMAWVRQAPGKGLEWVASISTGGVNTYYADSVKGRFTISRDNAKNTLYLQMNSLRAEDTAVYYCATHTGDYFDYWGQGTMVTVSSASTKGPSVFPLAPSSKSTSGGTAALGCLVEDYFPEPVTVSWNSGALTSGVHTFPAVLQSSGLYSLSSVVTVPSSSLGTQTYICNVNHKPSNTKVDEKVEPKSCDKTHTCPPCPAPEAAGGPSVFLFPPKPKDTLMISRTPEVTCVVVDVSHEDPEVKFNWYVDGVEVHNAKTKPREEQYNSTYRVVSVLTVLHQDWLNGKEYKCKVSNKALGAPIEKTISKAKGQPREPQVCTLPPSRDELTKNQVSLSCAVKGFYPSDIAVEWESNGQPENNYKTTPPVLDSDGSFFLVSKLTVDKSRWQQGNVFSCSVMHEALHNHYTQKSLSLSPGK
heavy 2: not shown
notes: as for B2

Key:
[1] = molecular target: T1, human GPRC5D (human, UniProt Q9NZD1 1-345); assay: cell-based or functional assay
[2] = molecular target: T1, human GPRC5D; assay: cell-based or functional assay; remark: listed apart in the source
[3] = molecular target: T1, human GPRC5D; assay: cell-based or functional assay; remark: listed apart in the source
[4] = molecular target: T1, human GPRC5D; assay: flow cytometry on NCI-H929 cells; paragraph 550 says these values were falsely calculated by a factor of 10 (too low)
Protocol: (§1) To measure the binding to GPRC5D, we performed a flow cytometry-based binding assay on reported multiple myeloma cell lines (Lombardi et al., Molecular characterization of human multiple myeloma cell lines by integrative genomics: insights into the biology of the disease; Genes Chromosomes Cancer. 2007 March; 46(3):226-38). The cell line NCI-H929 (ATCC® CRL-9068) was cultured in RPMI 1640 with Glutamax medium (Gibco) supplemented with 10% FBS, 1× Penicillin/Streptomycin (Gibco), 1× Sodium Pyruvate (Gibco) and 50 μM beta-Mercaptoethanol (Gibco). Jurkat-NFAT reporter cells (a CD3-expressing human acute lymphatic leukemia reporter cell line with a NFAT promoter, GloResponse Jurkat NFAT-RE-luc2P, Promega #CS176501) were cultured in RPMI 1640, containing 2 g/l Glucose, 2 g/l NaHCO₃, 10% FCS, 25 mM HEPES, 2 mM L-Glutamine, 1×NEAA, 1× Sodium-pyruvate and 200 μg/ml Hygromycin B.
(§2) Flow cytometry acquisition was performed on a custom-designed BD Biosciences Fortessa and analyzed using BD Diva. EC50 values were calculated, using GraphPad Prism software.

[5] = molecular target: T2, human CD3 (human, UniProt P07766 23-207); assay: flow cytometry on Jurkat-NFAT cells; paragraph 550 says these values were falsely calculated by a factor of 10 (too low)
T2 construct: Expressed on Jurkat-NFAT reporter cells as part of the TCR/CD3 complex; also called hCD3; CD3 epsilon
Protocol: as §1, §2

[6] = molecular target: T1, human GPRC5D; assay: cell-based or functional assay; remark: listed apart in the source
[7] = molecular target: T1, human GPRC5D; assay: cell-based or functional assay; remark: listed apart in the source

T1 sequence (Q9NZD1 whole entry): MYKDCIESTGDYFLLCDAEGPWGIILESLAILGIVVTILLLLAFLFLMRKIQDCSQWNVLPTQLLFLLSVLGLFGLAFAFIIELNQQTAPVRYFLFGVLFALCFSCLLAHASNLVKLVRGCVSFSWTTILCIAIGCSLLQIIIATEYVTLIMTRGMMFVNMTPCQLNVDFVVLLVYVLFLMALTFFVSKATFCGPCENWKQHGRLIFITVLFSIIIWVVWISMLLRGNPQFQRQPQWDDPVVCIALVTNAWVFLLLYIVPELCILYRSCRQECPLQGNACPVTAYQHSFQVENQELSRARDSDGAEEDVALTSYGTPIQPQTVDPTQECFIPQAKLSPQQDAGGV
T2 sequence (P07766 23-207 limits assumed): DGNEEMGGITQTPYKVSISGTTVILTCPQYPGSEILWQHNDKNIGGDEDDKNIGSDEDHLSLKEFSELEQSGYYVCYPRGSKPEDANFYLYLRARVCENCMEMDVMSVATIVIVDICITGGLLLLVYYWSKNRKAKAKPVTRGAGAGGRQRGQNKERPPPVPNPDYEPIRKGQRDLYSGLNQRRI

Binder	EC50 in vitro killing assay, AMO-1 [2] [pM]	EC50 in vitro killing assay, EJM [2] [pM]	EC50 in vitro killing assay, L363 [2] [pM]	EC50 in vitro killing assay, MOLP-2 [2] [pM]	EC50 in vitro killing assay, NCI-H929 [2] [pM]	EC50 in vitro killing assay, OPM-2 [2] [pM]	EC50 in vitro killing assay, RPMI [2] [pM]	AUC, activation of Jurkat-NFAT reporter cells in presence of RPMI-8226 cells [3]	EC50 (pM), activation of Jurkat-NFAT reporter cells in presence of RPMI-8226 cells [3] [pM]	EC50 [4] [pM]	EC50 [5] [pM]	other results
B1	8	11	17	18	7	2	64	265000	157	3360	3670	EC50 of anti-GPRC5D-TCB mediated killing, AMO-1 [1]: 14 pM; EC50 of anti-GPRC5D-TCB mediated killing, L363 [1]: 12 pM; EC50 of anti-GPRC5D-TCB mediated killing, NCI-H929 [1]: 7 pM; EC50 of anti-GPRC5D-TCB mediated killing, RPMI-8226 [1]: 24 pM
B2	–	–	–	–	–	–	–	778000	8.9	360	–	–
B3	109	60	58	124	58	171	193	–	–	–	–	EC50 (pM), TCB-mediated tumor cell lysis, AMO-1 [6]: 79.9 pM; EC50 (pM), TCB-mediated tumor cell lysis, IM-9 [6]: 198 pM; EC50 (pM), TCB-mediated tumor cell lysis, LP-1 [6]: 49 pM; EC50 (pM), TCB-mediated tumor cell lysis, NCI-H929 [6]: 26.9 pM; AUC, TCB-mediated tumor cell lysis, AMO-1 [7]: 5.45e+07; AUC, TCB-mediated tumor cell lysis, IM-9 [7]: 8.6e+06; AUC, TCB-mediated tumor cell lysis, LP-1 [7]: 1.15e+07; AUC, TCB-mediated tumor cell lysis, NCI-H929 [7]: 1.09e+07
B4	–	–	–	–	–	–	–	582000	49.7	850	7800	–
